Measurements taken from publication PMC3290749 (Oncogene, 2011).

Biological target: IgB-1 (UniProt P00533 25-645)
Test: ELISA

binding result: binds
B1: heparin-binding EGF like growth factor (ligand, UniProt Q99075 63-148, looked up)
chain: DLQEADLDLLRVTLSSKPQALATPNKEEHGKRKKKGKGLGKKRDPCLRKYKDFCIHGECKYVKELRAPSCICHPGYHGERCHGLSL
